# Values quoted from earlier work in US10525162B2, “Sophorolipid mediated accelerated gelation of silk fibroin” (COUNCIL OF SCIENTIFIC & INDUSTRIAL RESEARCH, priority 2014, dated 2020).
# Settings: aqueous SF solution without additive, below the isoelectric pH
substance,measurement,value
"SF: Silk fibroin, fibrous protein derived from silkworm Bombyx mori",gelation time,10 to 16 h
